Measurements from PMC3203869, “Altered Antibiotic Transport in OmpC Mutants Isolated from a Series of Clinical Strains of Multi-Drug Resistant E. coli” (PLoS ONE, 2011).

Experiments:
Assay in all cases: crystal structure; purified OmpC in detergent (0.6% HESO + 0.1% OPOE, or 1% βOG), crystals grown at 20°C or room temperature; trimer in the crystal
[1] = target: OmpC26 (E. coli (clinical isolate)) (UniProt P06996)
[2] = target: OmpC20 (E. coli (clinical isolate)) (UniProt P06996)
[3] = target: the molecule itself

OmpC26 (from UniProt P06996 22-367) (natural protein)
stoichiometry N [1]: 3

OmpC20 (from UniProt P06996 22-367) (natural protein)
stoichiometry N [2]: 3

B1: OmpCO6 (natural protein)
chain: AEVYNKDGNKLDLYGKVDGLHYFSDDKSVDGDQTYMRLGFKGETQVTDQLTGYGQWEYQIQGNAPESENNSWTRVAFAGLKFQDIGSFDYGRNYGVVYDVTSWTDVLPEFGGDTYGSDNFMQQRGNGFATYRNTDFFGLVDGLNFAVQYQGQNGSVSGENDPDFTGHGITNNGRKALRQNGDGVGGSITYDYEGFGVGAAVSSSKRTWDQNNTGLIGTGDRAETYTGGLKYDANNIYLAAQYTQTYNATRVGSLGWANKAQNFEAVAQYQFDFGLRPSVAYLQSKGKNLGVVAGRNYDDEDILKYVDVGATYYFNKNMSTYVDYKINLLDDNQFTRAAGINTDDIVALGLVYQF
notes: gene amplified by PCR and expressed from pHSG575; Trimer in the crystal; also called OmpC from uropathogenic E. coli O6:H1; source: E. coli strain lacking porins, plasmid pHSG575; purified (detergent extraction, POROS-HQ anion exchange, Superdex 200 gel filtration)
stoichiometry N [3]: 3
